{"source": "patent US6969760", "proteins": {"B1": {"name": "murine Jak2 protein tyrosine kinase (protein)", "chain": "MGMACLTMTEMEATSTSPVHQNGDIPGSANSVKQIEPVLQVYLYHSLGQAEGEYLKFPSGEYVAEEICVAASKACGITPVYHNMFALMSETERIWYPPNHVFHIDESTRHDILYRIRFYFPHWYCSGSSRTYRYGVSRGAEAPLLDDFVMSYLFAQWRHDFVHGWIKVPVTHETQEECLGMAVLDMMRIAKEKDQTPLAVYNSVSYKTFLPKCVRAKIQDYHILTRKRIRYRFRRFIQQFSQCKATARNLKLKYLINLETLQSAFYTEQFEVKESARGPSGEEIFATIIITGNGGIQWSRGKHKESETLTEQDVQLYCDFPDIIDVSIKQANQECSNESRIVTVHKQDGKVLEIELSSLKEALSFVSLIDGYYRLTADAHHYLCKEVAPPAVLENIHSNCHGPISMDFAISKLKKAGNQTGLYVLRCSPKDFNKYFLTFAVERENVIEYKHCLITKNENGEYNLSGTKRNFSNLKDLLNCYQMETVRSDSIIFQFTKCCPPKPKDKSNLLVFRTNGISDVQISPTLQRHNNVNQMVFHKIRNEDLIFNESLGQGTFTKIFKGVRREVGDYGQLHKTEVLLKVLDKAHRNYSESFFEAASMMSQLSHKHLVLNYGVCVCGEENILVQEFVKFGSLDTYLKKNKNSINILWKLGVAKQLAWAMHFLEEKSLIHGNVCAKNILLIREEDRRTGNPPFIKLSDPGISITVLPKDILQERIPWVPPECIENPKNLNLATDKWSFGTTLWEICSGGDKPLSALDSQRKLQFYEDKHQLPAPKWTELANLINNCMDYEPDFRPAFRAVIRDLNSLFTPDYELLTENDMLPNMRIGALGFSGAFEDRDPTQFEERHLKFLQQLGKGNFGSVEMCRYDPLQDNTGEVVAVKKLQHSTEEHLRDFEREIEILKSLQHDNIVKYKGVCYSAGRRNLRLIMEYLPYGSLRDYLQKHKERIDHKKLLQYTSQICKGMEYLGTKRYIHRDLATRNILVENENRVKIGDFGLTKVLPQDKEYYKVKEPGESPIFWYAPESLTESKFSVASDVWSFGVVLYELFTYIEKSKSPPVEFMRMIGNDKQGQMIVFHLIELLKSNGRLPRPEGCPDEIYVIMTECWNNNVSQRPSFRDLSFGWIKSGTV"}}, "target": "T1, wild type EPO receptor (EPOR) expressed in DA3(EPOR) cells or 3T3 fibroblasts, P14753", "T1 chain": "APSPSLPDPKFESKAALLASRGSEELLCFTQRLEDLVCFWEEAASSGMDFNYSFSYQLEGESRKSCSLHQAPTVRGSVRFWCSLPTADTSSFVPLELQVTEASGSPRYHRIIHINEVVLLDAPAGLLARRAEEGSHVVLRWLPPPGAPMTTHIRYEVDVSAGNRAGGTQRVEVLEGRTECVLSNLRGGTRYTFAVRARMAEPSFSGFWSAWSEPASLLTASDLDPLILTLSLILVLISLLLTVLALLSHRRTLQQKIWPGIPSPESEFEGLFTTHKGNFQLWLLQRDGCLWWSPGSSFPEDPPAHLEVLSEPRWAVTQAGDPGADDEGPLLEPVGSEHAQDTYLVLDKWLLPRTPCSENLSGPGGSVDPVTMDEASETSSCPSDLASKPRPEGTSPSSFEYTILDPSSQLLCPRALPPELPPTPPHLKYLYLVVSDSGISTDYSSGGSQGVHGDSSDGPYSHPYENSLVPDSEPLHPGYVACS", "data": [{"protein": "B1", "values": [{"measurement": "EPO-induced tyrosine phosphorylation of Jak2 in 3T3 fibroblasts expressing EPOR (Jak2 immunoprecipitation, 4G10 blot)", "result": "Following stimulation of the cells with EPO, a 130 kDa band, co-migrating with Jak2, was readily detected by a monoclonal antibody against phosphotyrosine (4G10)"}]}]}
